In IntAct's records for PubMed 19779455:

B1: E3 SUMO-protein ligase PIAS4 (Homo sapiens), Q8N2W9 (parent)
chain: MAAELVEAKNMVMSFRVSDLQMLLGFVGRSKSGLKHELVTRALQLVQFDCSPELFKKIKELYETRYAKKNSEPAPQPHRPLDPLTMHSTYDRAGAVPRTPLAGPNIDYPVLYGKYLNGLGRLPAKTLKPEVRLVKLPFFNMLDELLKPTELVPQNNEKLQESPCIFALTPRQVELIRNSRELQPGVKAVQVVLRICYSDTSCPQEDQYPPNIAVKVNHSYCSVPGYYPSNKPGVEPKRPCRPINLTHLMYLSSATNRITVTWGNYGKSYSVALYLVRQLTSSELLQRLKTIGVKHPELCKALVKEKLRLDPDSEIATTGVRVSLICPLVKMRLSVPCRAETCAHLQCFDAVFYLQMNEKKPTWMCPVCDKPAPYDQLIIDGLLSKILSECEDADEIEYLVDGSWCPIRAEKERSCSPQGAILVLGPSDANGLLPAPSVNGSGALGSTGGGGPVGSMENGKPGADVVDLTLDSSSSSEDEEEEEEEEEDEDEEGPRPKRRCPFQKGLVPAC

Variants of: B1
Settings: with parp1_human PARP1, P09874
parp1_human PARP1, P09874, sequence (P09874 whole entry): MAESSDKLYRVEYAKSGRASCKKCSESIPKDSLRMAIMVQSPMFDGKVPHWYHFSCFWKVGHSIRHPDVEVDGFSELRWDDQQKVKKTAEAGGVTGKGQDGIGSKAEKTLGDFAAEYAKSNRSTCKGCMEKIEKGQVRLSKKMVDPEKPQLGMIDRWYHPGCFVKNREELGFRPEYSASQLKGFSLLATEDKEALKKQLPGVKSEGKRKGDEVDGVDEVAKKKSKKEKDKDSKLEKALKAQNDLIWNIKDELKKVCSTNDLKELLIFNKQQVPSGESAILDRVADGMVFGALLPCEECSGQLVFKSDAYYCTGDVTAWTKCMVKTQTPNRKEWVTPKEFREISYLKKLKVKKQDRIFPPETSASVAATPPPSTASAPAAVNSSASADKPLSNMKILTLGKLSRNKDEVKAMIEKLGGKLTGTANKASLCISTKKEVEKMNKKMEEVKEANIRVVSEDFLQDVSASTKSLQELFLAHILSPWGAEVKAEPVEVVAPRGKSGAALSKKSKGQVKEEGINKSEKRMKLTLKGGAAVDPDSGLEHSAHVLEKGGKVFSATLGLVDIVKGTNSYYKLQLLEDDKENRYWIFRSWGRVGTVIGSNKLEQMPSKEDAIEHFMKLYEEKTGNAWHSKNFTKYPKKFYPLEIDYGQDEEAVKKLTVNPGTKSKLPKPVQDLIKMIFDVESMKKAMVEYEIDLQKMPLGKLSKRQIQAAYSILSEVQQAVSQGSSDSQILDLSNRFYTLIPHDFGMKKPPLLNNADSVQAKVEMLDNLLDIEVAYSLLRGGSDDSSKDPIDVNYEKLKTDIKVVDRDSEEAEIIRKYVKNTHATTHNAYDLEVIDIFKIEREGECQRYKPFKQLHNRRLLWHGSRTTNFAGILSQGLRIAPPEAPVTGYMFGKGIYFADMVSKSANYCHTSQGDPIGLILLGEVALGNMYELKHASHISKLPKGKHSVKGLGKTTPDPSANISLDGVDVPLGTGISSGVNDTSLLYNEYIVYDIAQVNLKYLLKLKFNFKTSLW

Variant | effect of a mutation on the interaction
MAAELVEAKNMVMSFRVSDLQMLLGFVGRSKSGLKHELVTRALQLVQFDCSPELFKKIKELYETRYAKKNSEPAPQPHRPLDPLTMHSTYDRAGAVPRTPLAGPNIDYPVLYGKYLNGLGRLPAKTLKPEVRLVKLPFFNMLDELLKPTELVPQNNEKLQESPCIFALTPRQVELIRNSRELQPGVKAVQVVLRICYSDTSCPQEDQYPPNIAVKVNHSYCSVPGYYPSNKPGVEPKRPCRPINLTHLMYLSSATNRITVTWGNYGKSYSVALYLVRQLTSSELLQRLKTIGVKHPELCKALVKEKLRLDPDSEIATTGVRVSLICPLVKMRLSVPCRAETFAHLQCFDAVFYLQMNEKKPTWMCPVCDKPAPYDQLIIDGLLSKILSECEDADEIEYLVDGSWCPIRAEKERSCSPQGAILVLGPSDANGLLPAPSVNGSGALGSTGGGGPVGSMENGKPGADVVDLTLDSSSSSEDEEEEEEEEEDEDEEGPRPKRRCPFQKGLVPAC [C342F] | disrupting interaction
